This is an account of results in the RNAGym collection of RNA variant scans (doi:10.1101/gr.219683.116).

B1: mRNA-splicing (parent)
chain: AGUUGCUGCUGGGAGCUCCAGCACAGUGAAAUGGACAGAAGGGCAGAGCAA

Variants of B1 are the subject of this data set. As to the kind of experiment: exon inclusion enrichment index; higher = more inclusion; WT1 exon 5 minigene, HEK293.
Consider AGUUGACGACGGGAGCUCCAGCACAGUGAAAUGGAUGGAAGGGCAGAGCAA [C6A U7C C9A U10C C36U A37G], for which the “exon inclusion enrichment index” value amounted to 2.91.

As for AGUUACCACCGGGAGCUCCAGCACAGUGAAAUGGCUAGAAGGGCAGAGCAA [G5A U7C G8A U10C A35C C36U], the “exon inclusion enrichment index” value was 0.244.

AGUUGAAGAAGGGAGCUUAAGCACAGUGAAAUGGACAGAAGGGCAGAGCAA [C6A U7A C9A U10A C18U C19A]: the “exon inclusion enrichment index” value turned out to be 0.046.

Turning to ACUUAUAUAUGGGAGCUCCAGCACAGUGAAAUGGACAGAAGGGCAGAGCAA [G2C G5A C6U U7A G8U C9A], the “exon inclusion enrichment index” value stood at 0.0726.

Turning to AGUUGACCCCGGGAGCUCCAGCACAGUGAAAUGGACAGAAGGGCAGAGCAA [C6A U7C G8C U10C], the “exon inclusion enrichment index” value was determined as 2.08.

For AGUUCACACAGGGAGCUCCAGCACAGUGAAAUGGACAGAAGCGCAGAGCAA [G5C C6A U7C G8A U10A G42C], the “exon inclusion enrichment index” value turned out to be 0.501.

As for AGUUCGCGCCGGCUGCUCCAGCACAGUGAAAUGGACAGAAGGGCAGAGCAA [G5C C6G U7C U10C G13C A14U], the “exon inclusion enrichment index” value was found to be 1.88.

For AGUUAUAUAUGGGAGCUCCAGCACAGUGAAAUGGACAGUGGGGCAGAGCAA [G5A C6U U7A G8U C9A A39U A40G], the “exon inclusion enrichment index” value turned out to be 0.0054.

With AGUUCGCGCCGGGAGCUCCCGCACAGUGAAAUGGACAGAAGGGCAGAGCAA [G5C C6G U7C U10C A20C], the “exon inclusion enrichment index” value was 3.4.

AGUUGAAGAAGGGAGCUCCAGCACAGUGAAAUGGACAGAAGGGCAGAGCAA [C6A U7A C9A U10A]: the “exon inclusion enrichment index” value came to 0.801.

Regarding AGUUAGGGAUGGGAGCUCCAGCACAGUGAAUUGGACAGAAGGGCAGAGCAA [G5A C6G U7G C9A A31U], the “exon inclusion enrichment index” value came out at 0.00278.

Regarding AGUUCACACAGGGAGCUCCAGCUAAGUGAAAUGGACAGAAGGGCAGAGCAA [G5C C6A U7C G8A U10A A23U C24A], the “exon inclusion enrichment index” value turned out to be 0.0357.

Regarding AGUUCACACAGGGAGCUCCAGCACAGUGAAAUGGAGAGAAGGGCAGAGCAA [G5C C6A U7C G8A U10A C36G], the “exon inclusion enrichment index” value came to 0.0563.

Regarding AGUUCGCGCCGGGAGCUCCAGCACAGUGAAACGGACAGAAGGGCAGAGCAA [G5C C6G U7C U10C U32C], the “exon inclusion enrichment index” value was determined as 4.75.

As for AGUUUCUUUUGGGAGCUUCAGCACAGUGAAAUGGACAGAAGGGCAGAGCAA [G5U G8U C9U C18U], the “exon inclusion enrichment index” value stood at 0.0536.

As for AGUUCUUCUCGGGAGCUCUAGCACAGUGAAAUGGACAGAAGGGCAGAGCAA [G5C C6U G8C C9U U10C C19U], the “exon inclusion enrichment index” value was determined as 0.105.

For the variant AGUUGAAGAAGUAAGCUCCAGCACAGUGAAAUGGACAGAAGGGCAGAGCAA [C6A U7A C9A U10A G12U G13A], the “exon inclusion enrichment index” value amounted to 0.633.

Consider AGUUCUUCUCGGGAGCUCCAGCACAGUGAAAUGGACAGACGGGCAGAGCAA [G5C C6U G8C C9U U10C A40C], for which the “exon inclusion enrichment index” value is 2.94.

In the case of AGUUUCUUUUGGGAGCUCCAGCACAGUGAAAUGGACAGAAGGGAGGAGCAA [G5U G8U C9U C44A A45G], the “exon inclusion enrichment index” value was 0.326.

For the variant AGUUUCUUUUGGGAGCUCCAGCACAGUGAAAUGCACAGAAGGGCAGAGCAA [G5U G8U C9U G34C], the “exon inclusion enrichment index” value came to 0.0201.

In the case of AGUUCGCGCCGGGAGCUCCAGCACAGUGAAAUGGACAGAAGGGCAACGCAA [G5C C6G U7C U10C G46A A47C], the “exon inclusion enrichment index” value was determined as 3.6.

Take AGUGCGGGAUGGGAGCUCCAGCACAGUGAAAUGGACAGAAGGGCAGAGCAA [U4G G5C C6G U7G C9A]: the “exon inclusion enrichment index” value is 0.248.

Take AGUUAUACCUGGGAGCUCCAGCACAGUGAAAUGGACAGAAGGGCAGAGCAA [G5A C6U U7A G8C]: the “exon inclusion enrichment index” value worked out at 0.696.

For AGUUCGCGCCGGGAGCUCCAGCACAGUGAAAUGAACAGAAGGGCAGAGCAA [G5C C6G U7C U10C G34A], the “exon inclusion enrichment index” value was found to be 2.69.

Consider AGUUAGGGAUGGGAGCUCGGGCACAGUGAAAUGGACAGAAGGGCAGAGCAA [G5A C6G U7G C9A C19G A20G], for which the “exon inclusion enrichment index” value was 0.00172.

On to AGUUGCUGCUGGGAGCUAAAGCACAGUGAAAUGGACAGAAGGGCAGAGCAA [C18A C19A], for which the “exon inclusion enrichment index” value was determined as 0.547.

As to AUCUUCUUUUGGGAGCUCCAGCACAGUGAAAUGGACAGAAGGGCAGAGCAA [G2U U3C G5U G8U C9U], the “exon inclusion enrichment index” value amounted to 0.965.

Regarding AGUUGACGACGGGAGCUCCAGCACGGUGAAAUGGACAGAAGGGCAGAGCAA [C6A U7C C9A U10C A25G], the “exon inclusion enrichment index” value is 4.53.

In the case of AGUUGCUGCUGGGAGCUCCAGCACAGUGAAAUCCACAGAAGGGCAGAGCAA [G33C G34C], the “exon inclusion enrichment index” value stood at 0.0456.

With AGUUGACGUCGGGAGCUCCAGCACAGUGAAAUGGACAGAAGGGCAGAGCAA [C6A U7C C9U U10C], the “exon inclusion enrichment index” value is 2.52.

Consider AGUUCUUCUCGGGAGCUCCAGCACAGUGAAACCGACAGAAGGGCAGAGCAA [G5C C6U G8C C9U U10C U32C G33C], for which the “exon inclusion enrichment index” value amounted to 2.66.

With AGUUACCACCGGGAGCUCCAGCACAGUGAACGGGACAGAAGGGCAGAGCAA [G5A U7C G8A U10C A31C U32G], the “exon inclusion enrichment index” value is 2.85.

For the variant AGUUCUUCUCGGGAGCUCCAGCACAUGGAAAUGGACAGAAGGGCAGAGCAA [G5C C6U G8C C9U U10C G26U U27G], the “exon inclusion enrichment index” value was 2.97.

Regarding AGUUAACGAUGGGAGCUCCAGCACAGUGAAAUGGACAGAAGGGCAGAGCAA [G5A C6A U7C C9A], the “exon inclusion enrichment index” value turned out to be 0.838.

On to AGUUACCACCGGGAGCUCCAGCACAGUGAAAUUGACAGAAGGGCAGAGCAA [G5A U7C G8A U10C G33U], for which the “exon inclusion enrichment index” value worked out at 0.998.

With AGUUGAAGAAGGGAGCUCCAGCACAGUGAAAUGGACAGAAUCGCAGAGCAA [C6A U7A C9A U10A G41U G42C], the “exon inclusion enrichment index” value is 1.58.

Consider AGUUCUUCUCCCGAGCUCCAGCACAGUGAAAUGGACAGAAGGGCAGAGCAA [G5C C6U G8C C9U U10C G11C G12C], for which the “exon inclusion enrichment index” value is 0.631.

In the case of AGUUGCUGCUGGGAGCUCCAGCACAGUGAAAUGGACAGAAGGGCAGUACAA [A47U G48A], the “exon inclusion enrichment index” value came out at 0.123.

For the variant AGUUCUUCUCGGGAGCUCCAGCACAGUGAAGAGGACAGAAGGGCAGAGCAA [G5C C6U G8C C9U U10C A31G U32A], the “exon inclusion enrichment index” value was 3.83.

For AGUUCGCGCUAGGAGCUCCAGCACAGUGAAAUGGACAGAAGGGCAGAGCAA [G5C C6G U7C G11A], the “exon inclusion enrichment index” value was 0.993.

Turning to AGUUCACACAGGGAGCUCCAGCAAAGUGAAAUGGACAGAAGGGCAGAGCAA [G5C C6A U7C G8A U10A C24A], the “exon inclusion enrichment index” value was 0.105.

For AGUUCGCGCCGGGAGCUCCAGCACAAGGAAAUGGACAGAAGGGCAGAGCAA [G5C C6G U7C U10C G26A U27G], the “exon inclusion enrichment index” value came to 3.56.

For AGUUUCUUUUGGCCGCUCCAGCACAGUGAAAUGGACAGAAGGGCAGAGCAA [G5U G8U C9U G13C A14C], the “exon inclusion enrichment index” value turned out to be 0.063.

For the variant AGACCACACAGGGAGCUCCAGCACAGUGAAAUGGACAGAAGGGCAGAGCAA [U3A U4C G5C C6A U7C G8A U10A], the “exon inclusion enrichment index” value amounted to 0.389.

As to AGUUACCACCGGGGCCUCCAGCACAGUGAAAUGGACAGAAGGGCAGAGCAA [G5A U7C G8A U10C A14G G15C], the “exon inclusion enrichment index” value stood at 1.06.

AGUUGCUGCUGGGAGCUCCAGCACGAUGAAAUGGACAGAAGGGCAGAGCAA [A25G G26A]: the “exon inclusion enrichment index” value amounted to 0.573.

As to AGUUGAAGAAGGGAGUGCCAGCACAGUGAAAUGGACAGAAGGGCAGAGCAA [C6A U7A C9A U10A C16U U17G], the “exon inclusion enrichment index” value amounted to 0.212.

In the case of AGUUACCACAGGGAGCUCCAGCACAGUGAAAUGGACAGAAGGGCAGAGCAA [G5A U7C G8A U10A], the “exon inclusion enrichment index” value worked out at 0.253.

Take AGUUAGGGAUGGGAGCUGCAGCACAGUGAAAUGGACAGAAGGGCAGAGCAA [G5A C6G U7G C9A C18G]: the “exon inclusion enrichment index” value amounted to 0.00165.

AGUUAGGGAUGGGAGCUCCAGCAGAGUGAAAUGGACAGAAGGGCAGAGCAA [G5A C6G U7G C9A C24G]: the “exon inclusion enrichment index” value amounted to 0.00883.

In the case of AGUAGAAGAAGGGAGCUCCAGCACAGUGAAAUGGACAGAAGGGCAGAGCAA [U4A C6A U7A C9A U10A], the “exon inclusion enrichment index” value was 0.122.
